# From the nanobody polyreactivity screen of Harvey et al. (2022)
# Assay: yeast display, Sf9 membrane polyspecificity reagent, FACS + sequencing; frameworks hold sequencing errors
# Method in brief: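 In a synthetic yeast display library (Saccharomyces cerevisiae BJ5465), nanobody expression was induced with galactose for 36–48 hours. FACS gates were set low and high (top ~1%) using anti-HA fluorescence for expression and streptavidin fluorescence for binding of the Sf9 membrane reagent. Each polyreactivity label is drawn from the gate of origin.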
row,Sequence,polyreactivity (PSR sort gate)
1,QVQLVESGGGLVQAGGSLRLSCAASGRIFSSNAMGSYRQAPGKERELVAGISIRGGSTYYADSVKGRFTISRDNAKNTVYLQMNSLKPEDTAVYYCAKDGRRRRTFDYWGQGTQVTVSS,high polyreactivity
2,QVQLVESGGGLVQAGGSLRLSCAASGRIFSSYALGWYRQARGKERELVAAISASGGRTYYADSVKGRCTISRDNAKNTVYLQMNSLKPEDTAVYYCNRGYISGSVVERYYWGQGTQVTVSS,high polyreactivity
3,QVQLVESGGGLVQAGGSLRLSCAASGRIFSSYAMGWYRQAPGKERELVAAISGSGGRTYYADSVKGRFTISRDNAKNTVYLQMNSLKPEDTAVYYCNARRRSPYSTGVAYDYWGQGTQVTVSS,high polyreactivity
4,QVQLVESGGGLVQAGGSLRLSCAASGRIFSSYAMGWYRQAPGKERELVAAISSSGGNTYYADSVKGRFTISRDNAKNTVYLQMNSLKPEDTAVYYCNTRWVHRDWYDYWGLGTQVTVSS,high polyreactivity
5,QVQLVESGGGLVQAGGSLRLSCAASGRIFSSYAMGWYRQAPGKERELVAANSRSGARTYYADSVKGRFTISRDNAKNTVYLQMNSLKPEDTAVYYCAAVTVAGYDYWGQGTQVTVSS,high polyreactivity
6,QVQLVESGGGLVQAGGSLRLSCAASGRIFSTNAMGWYRPAPGKERELVAAINWSTGSYVLRRSVKGRFTISRDTAKNTVYLQMNSLKPEDTAVYYCAATWRNPGKATQRYYYWGQGTQVTVSS,high polyreactivity
7,QVQLVESGGGLVQAGGSLRLSCAASGRIFSTYAMGWYRQAPGKERELVAAINKIGGSTYYADSVKGRITISRDNAKNTVYLQMNSLKPEDTAVYYCAADAPYYPVRRYYYWGQGTQVTVSS,low polyreactivity
8,QVQLVESGGGLVQAGGSLRLSCAASGRIFSTYAMGWYRQAPGKERELVAAITNSAGSTYYADSVKGRFTISRDNAKNTVYLHMNSLKPEDTALYYCATGWSRISYGFDYWGQGTLVTVSS,low polyreactivity
9,QVQLVESGGGLVQAGGSLRLSCAASGRIFSTYAMGWYRQAPGKERELVAAITWDGRTYYADSVKGRFTISRDNAKNTVYLQMNSLKPEDTAVYYCAADGEYRYDWEYESWGQGTQVTVSS,low polyreactivity
10,QVQLVESGGGLVQAGGSLRLSCAASGRIFSVYAMGWYRQAPGKEREFVAAITKGGVGTYYADSVKGRFTISRDNAKNTVSLQMNCLKPEDTAVYYCAARGTSRQTWLFRYNWNDYWGQGTQVTVSS,high polyreactivity
11,QVQLVESGGGLVQAGGSLRLSCAASGRIFSVYAMGWYRQAPGKEREFVAAITKGGVGTYYADSVKGRFTISRDNAKNTVYLQMNSLKPEDTAVYYGAARHYYGADRYYSWGQGTQVTVSS,high polyreactivity
12,QVQLVESGGGLVQAGGSLRLSCAASGRIFSVYAMGWYRQEPGKERELVAAITRNGATTYYADSVKGRFTISRDNAKNTVYLQMNSLKPEDTAVYYCAARPLFASRTKYGYWGQGTQVTVSS,high polyreactivity
13,QVQLVESGGGLVQAGGSLRLSCAASGRIFSVYTKGWYRQAPGKERELVATISSGGRTNYADSVKGRFTISRDNAKNTVYLQINSLKPEDSAVYYCAAVPYGFVGYDDYWGQGSQVTVSS,low polyreactivity
14,QVQLVESGGGLVQAGGSLRLSCAASGRIFSVYTMGLYRQAPGKERELGAAISSGGRTYYADSVKGRFTISRDNAKNTVYLQMNSLKPEDTAVYYCAAGSHYAFYYWGQGTQVTVSS,high polyreactivity
15,QVQLVESGGGLVQAGGSLRLSCAASGRIFSWYAMGWYRQAPGKERELVAAITVRGSTYYADSVKGRFTISRDNAKNTVYLQMNSLKPEDTAVYYCAAGGYPGTTYYGYDYWGQGTQVTVSS,low polyreactivity
16,QVQLVESGGGLVQAGGSLRLSCAASGRIFSWYAMGWYRQAPGKERELVARITSGVSTNYADSVKGRFTISRDNEKNTVYLQMNSLKPEDTAVYDCAADDYSCLYYSSTYRYEYWGQGTQVTVSS,low polyreactivity
17,QVQLVESGGGLVQAGGSLRLSCAASGRIFSYNAMGWYRQAPGKERDLVASISGGGSTYADSVKGRFTISRDNAKNTVYLQMNRLKPADTAVYYCNAVHFSYEYDYWGQGTQVTVSS,high polyreactivity
